# Laboratory results taken from the supplement of paper PMC12636428.
# System: Saccharomyces cerevisiae
# Assay: transcriptional activation domain activity (GFP:mCherry ratio, weighted mean of sorted bins, harmonized to initial dataset scale) (arbitrary fluorescence ratio units); higher = stronger transcriptional activation
# Conditions: beta-estradiol 1 µM; induction time 4 h
# Outline: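 For this assay, yeast diploids with a GFP reporter carried barcoded protein tiles at URA3, each fused to an estradiol-inducible synthetic transcription factor. Induction was a 1:5 dilution into SC with 1 uM beta-estradiol for 4 hours at 30 °C, followed by sorting into 8 bins by GFP:mCherry ratio and barcode sequencing. Tiles under 50 reads were dropped, and activation activity was calculated as the read-weighted mean of bin median fluorescence, averaged across barcodes and linearly mapped onto the initial dataset scale.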
row,Sequence,transcriptional activation domain activity
1,IARADRTSPNDGGVALKKHVVVFASRPGLGLLIAAYLHKNLRSDWNIQLILGC,66700
2,IARPISFFVLGASAAFTTIRALGPSTHPLISVNYFSLWCTFVSLLALLLCPLL,58700
3,IARSRNLPLDVVMYLGSDEENDMMVDTLLLLHDYISKVRSLILRVNFMTLSCA,66700
4,IAYPFFFIHSILLNLYYALLPYAFYLYLYIYIFLSFFSRLTVSSSFIPPLLSP,65000
5,ICFSPPLISCGGFFPSDLLPFLFHSFSFYFLTCWLPVYFLPPLFVACFFICLP,60100
6,ICGMWLRGSFTFLSTVKDPHVLLRTMIKRDPELGFLWVGAFITGCHDRALREG,71200
7,ICGSVLKELEHKPFFIWFLRCVYHKVLVVLKNGPSAVVSVAEVQRPPQIGDEV,30400
8,ICHYKGSLIGKHFKSLSQVMPFIIYDLVPSTVLNAWTIMGKLIVLIWHTKILN,38600
9,ICIIPFVNGFLCEPILPLFFFCSFLILSESWFIFLHWFGSWSLVIYFGSWCLF,79700
10,ICIIPFVNGFLCEPILPLVFFCSSLTLSESWFIFCIGLVVGLWLYTLVAGVCF,37300
11,ICIPLPFQTLVCSHIVLTPLFYPLFCTPLDIFYVSNYSCLVLVLSLPFHFFLH,39400
12,ICISILLIPGDLVTVFSRIGRSEAANIAFSIVLMPSMWSGYFWISLCYLSFWT,52700
13,ICLALCTVLTTLTLGVSLYFGVVLVRSDFLWQVSFRDLTWSYFVAFGAQVIVD,41100
14,ICNFFYKNILGMGVLFWYQIYCGWSSTYVYNYVYLLFWNVFWTLCPVIAIGLF,41800
15,ICVLEKMLLFYFYFPLPFKLTLDQHLSLFSLLCFFFRVMPYTFWLKSYPMLVL,74200
16,ICYVSLCVVISMCDLLVLWRCWVIWTALDHHLAYLVTFVPVIMLLSSFVMGTF,44100
17,IDDFEQFRTEYTIDLSDFQNTERLKFLEEYYWKTLNFTTPMYGADTPGSIFPE,93300

row,Sequence,transcriptional activation domain activity
1,IDFHQHESLIGTEDAFFWFLVPLIGVVCIGVCTVLHYVVLIFTHSFRLLYSLV,26700
2,IDGIDLEEAGNFREIETYYRDYLSPIDRLSIISVQENNVIFQDKGNVSRENIE,73100
3,IDGVWFAYCHLSLFALLGEHISLNATNSEFPLVPSQSWKWDDFLFSISFLETL,71300
4,IDHTDIHAHHADAHDDSFIESEEWLSKFIMDSQIDNDLKLNINHFNDIGFNNL,154000
5,IDPHGYDANGLYEIGTIVSSIAVCVANFFVVFSLYSYTWIQALVISLSILVYY,45700
6,IDSEAEDASRNGKIPKGKKSKKNHCESETEEVIEKQPASTTQKSSKKKHCMRK,19600
7,IDVCLRERDANDYSRQVLGHYWENGIPLSSNRIIHDLLVILRNVIARVITAAK,42300
8,IEAEEAEEIGVEHLLRDIASSSGAPSSTLLTTQSLSTRVAAQLNALQGLRARL,66900
9,IEDQTKYVTQAYLAATRIVTIISKLVETRHLIELPIYIRQSVTYAVLILFRLH,56400
10,IEDSRRVDRGDEDKGREDHTRHRRRGSTDTGRRDERSHRDRRRSRSRSPASRR,21900
11,IEGPTLSDWFRIFERAFSLRELHWVYNYEDSYAMKPDRVIVLLNLWQLVAPNV,42800
12,IEHKYTTQVNVFFGIVFSELLKSNTAVRGCLMVGIARVAKSGWMSGLNHIEVF,68500
13,IEKLGITVLQREVVNNGLEISHDFRALRVALCARQPLLQVVWFKNHLPSVYYF,69900
14,IEKNMYPVGTLLTLADHGFNGWLKTTLLPYLNLLHNLDVLDPELLTIFTSFIL,54700
15,IELRARVFNYSNMHALKRCTFRLNRFETAFNFKLLWLFFVYYTRGIEVNRRNL,58600
16,IELSRNFVNVPDFVCFFNLPDNLSVLYTLEIVYFGQLLLFHSIIYALVLIRFW,47900
17,IENFLSPSFLEFIPHLANEYGFDYELVTYKWPTWLIHQKEKQRLIWGYKILFL,56800
